T1: human CD73 on cells (human, UniProt P21589 27-549)
T1 sequence: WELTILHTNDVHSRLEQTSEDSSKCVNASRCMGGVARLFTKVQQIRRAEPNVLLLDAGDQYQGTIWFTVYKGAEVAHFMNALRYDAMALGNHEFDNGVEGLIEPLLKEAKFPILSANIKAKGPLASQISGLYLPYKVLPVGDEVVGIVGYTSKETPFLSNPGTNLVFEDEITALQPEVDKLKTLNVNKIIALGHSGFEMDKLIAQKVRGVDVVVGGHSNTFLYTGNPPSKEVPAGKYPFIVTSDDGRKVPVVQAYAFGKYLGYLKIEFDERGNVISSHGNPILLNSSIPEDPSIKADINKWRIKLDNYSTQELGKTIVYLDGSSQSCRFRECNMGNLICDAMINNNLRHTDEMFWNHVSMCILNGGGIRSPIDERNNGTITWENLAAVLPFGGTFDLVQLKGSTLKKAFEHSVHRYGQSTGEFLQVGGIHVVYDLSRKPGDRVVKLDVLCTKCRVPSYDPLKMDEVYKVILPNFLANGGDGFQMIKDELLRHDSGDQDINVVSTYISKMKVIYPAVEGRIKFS

T2: recombinant human CD73 protein (form not stated) (human, UniProt P21589 27-549)
T2 construct: also called huCD73; rCD73
T2 sequence: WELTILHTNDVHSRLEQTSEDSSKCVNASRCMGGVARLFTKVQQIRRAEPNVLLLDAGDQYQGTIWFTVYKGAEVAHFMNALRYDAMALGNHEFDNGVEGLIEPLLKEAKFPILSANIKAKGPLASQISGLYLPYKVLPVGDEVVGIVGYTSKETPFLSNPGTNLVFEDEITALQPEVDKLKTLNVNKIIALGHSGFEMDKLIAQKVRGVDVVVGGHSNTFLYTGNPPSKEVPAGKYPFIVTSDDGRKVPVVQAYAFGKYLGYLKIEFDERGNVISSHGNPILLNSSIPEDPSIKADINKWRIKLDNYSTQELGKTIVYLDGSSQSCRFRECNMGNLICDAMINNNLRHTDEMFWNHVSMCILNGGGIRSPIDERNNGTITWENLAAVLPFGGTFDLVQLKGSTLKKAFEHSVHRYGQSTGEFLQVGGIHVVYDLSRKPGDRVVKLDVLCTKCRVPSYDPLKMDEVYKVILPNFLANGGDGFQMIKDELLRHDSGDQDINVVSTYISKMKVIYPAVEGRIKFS

B1: CD730010 antibody (antibody, IgG1, V domains shown)
VH: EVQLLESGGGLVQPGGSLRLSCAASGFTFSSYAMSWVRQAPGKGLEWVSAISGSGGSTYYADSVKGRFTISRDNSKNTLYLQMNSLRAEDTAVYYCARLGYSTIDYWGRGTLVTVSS
VL: LPVLTQPPSVSGTPGQRVTISCSGSLSNIGRNPVNWYKQVPGTAPKLLIYLNNQRPSGVPDRFSGSKSGTSASLAISGLQSEDEADYYCATWDDSLNGWLFGGGTKLTVL
notes: IgG1; tested as IgG1-TM (L234F, L235E, P331S); also called clone 10
B2: C2 (antibody, IgG1, V domains shown)
VH: EVQLLESGGGLVQPGGSLRLSCAASGFTFSSYAYSWVRQAPGKGLEWVSLIWGSWGSTYYADSVKGRFTISRDNSKNTLYLQMNSLRAEDTAVYYCARLGYSTIDMWGRGTLVTVSS
VL: QSVLTQPPSASGTPGQRVTISCSGSLSNIGRNPVNWYQQLPGTAPKLLIYLDNLRLGGVPDRFSGSKSGTSASLAISGLQSEDEADYYCATWDDSLKGWLFGGGTKLTVL
notes: also called clone 10 C2
B3: G10 (antibody, IgG1, V domains shown)
VH: EVQLLESGGGLVQPGGSLRLSCAASGFTFSSYAYSWVRQAPGKGLEWVSAISGSWGRTYYADSVKGRFTISRDNSKNTLYLQMNSLRAEDTAVYYCARLGYSTIDLWGRGTLVTVSS
VL: QSVLTQPPSASGTPGQRVTISCSGSLSNIGRNDVNWYQQLPGTAPKLLIYLNNQRLGGVPDRFSGSKSGTSASLAISGLQSEDEADYYCATWDDSLKGWLFGGGTKLTVL
notes: also called clone 10 G10
B4: CD730010 GL10 (antibody, V domains shown)
VH: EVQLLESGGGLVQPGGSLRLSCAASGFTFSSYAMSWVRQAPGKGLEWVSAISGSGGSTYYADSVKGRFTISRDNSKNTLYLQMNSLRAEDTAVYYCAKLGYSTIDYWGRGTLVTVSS
VL: LPVLTQPPSVSGTPGQRVTISCSGSLSNIGRNPVNWYKQVPGTAPKLLIYLNNQRPSGVPDRFSGSKSGTSASLAISGLQSEDEADYYCATWDDSLNGWLFGGGTKLTVL
B5: C1 (antibody, IgG1, V domains shown)
VH: EVQLLESGGGLVQPGGSLRLSCAASGFTFSSYAYSWVRQAPGKGLEWVSAISGSGGSTYYADSVKGRFTISRDNSKNTLYLQMNSLRAEDTAVYYCARLGYSTIDKWGRGTLVTVSS
VL: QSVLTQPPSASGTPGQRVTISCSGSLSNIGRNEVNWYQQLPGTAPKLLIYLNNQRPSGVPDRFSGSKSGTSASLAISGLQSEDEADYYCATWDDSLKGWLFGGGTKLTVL
notes: also called clone 10 C1
B6: CD730042 antibody (antibody, IgG1, V domains shown)
VH: GVQLVQSGGGLVQPGGSLRLSCAASGFTFSSYGMHWVRQAPGKGLEWVAVISYDGSIKYYADSVKGRFTISRDDSKNALYLQMNSLRAEDTAVYYCSTLSGSYGYFDYWGRGTLVTVSS
VL: QSVLTQPASVSGSPGQSITISCAGTSSDVGGYNYVSWYQQHPGKAPKLMIYEGSKRPSGVSNRFSGSKSGNTASLTISGLQAEDEADYYCSSYTTRSTRVFGGGTKLTVL
notes: IgG1
B7: CD730047 antibody (antibody, IgG1, V domains shown)
VH: EVQLVQSGGGVVQPGRSLRLSCAASGFTFSSYGMHWVRQAPGKGLEWVAVISYDGSIKYYADSVKGRFAISRDNAKNTLYLQMNSLRREDTAMYYCASGLTGVAGALGVWGRGTLVTVSS
VL: QSVLTQPPSASGAPGQRVTISCSGSSSNIGSNTVNWYQRLPGAAPQLLIYNNDQRPSGIPDRFSGSKSGTSGSLVISGLQSEDEADYYCAAWDDSLSGNVFGTGTKVTVL
notes: IgG1
B8: CD730046 antibody (antibody, IgG1, V domains shown)
VH: QVQLVQSGGGVVQPGRSLRLSCAASGFTFSSYGMHWVRQAPGKGLEWVAVISYDGSIKYYADSVKGRFTISRDNSKNSLFLQMNSLRDDDTATYYCARGHLLRIGDIFYYSLDVWGQGTLVTVSS
VL: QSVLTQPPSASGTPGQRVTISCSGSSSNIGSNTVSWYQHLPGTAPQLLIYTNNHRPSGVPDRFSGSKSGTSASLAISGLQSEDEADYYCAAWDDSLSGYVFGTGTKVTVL
notes: IgG1
B9: CD730004 antibody (antibody, IgG1, V domains shown)
VH: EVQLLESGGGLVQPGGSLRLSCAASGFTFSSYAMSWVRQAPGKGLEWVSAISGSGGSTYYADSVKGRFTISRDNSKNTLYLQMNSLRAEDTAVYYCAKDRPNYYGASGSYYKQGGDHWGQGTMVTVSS
VL: NFMLTQPHSVSESPGQTVTISCTRSSGSIASKYVQWYQKRPGSSPTTVIYEDTQRPSGVPDRFSGSIDISSNSASLTISGLRTEDEADYYCQSYDSTNWVFGGGTKVTVL
notes: IgG1
B10: CD730011 antibody (antibody, IgG1, V domains shown)
VH: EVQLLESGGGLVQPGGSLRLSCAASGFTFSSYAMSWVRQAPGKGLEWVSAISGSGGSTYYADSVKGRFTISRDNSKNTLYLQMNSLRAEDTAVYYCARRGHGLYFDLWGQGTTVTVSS
VL: NFMLTQPHSVSESPGKTVTISCTRSSGSIASKYVQWYQQRPGSSPMAVIYKDNQRSSGVPDRFSGSIDSSSNSASLTISGLKPEDEADYYCQSYDASNYYVFGTGTKVTVL
notes: IgG1; also called CD7300011
B11: 73combo2 (C2 + GRVE + HPT) (antibody, IgG1, V domains shown)
VH: EVQLLESGGGLVQPGGSLRLSCAASGFTFSSYAYSWVRQAPGKGLEWVSLIWGSWGSTYYADSVKGRFTISRDNSKNTLYLQMNSLRAEDTAVYYCARLGYGRVDEWGRGTLVTVSS
VL: QSVLTQPPSASGTPGQRVTISCSGSLSNIGRNPVNWYQQLPGTAPKLLIYLDNLRLGGVPDRFSGSKSGTSASLAISGLQSEDEADYYCATWDDSHPGWTFGGGTKLTVL
notes: also called clone 10 combo2
B12: CD730021 antibody (antibody, IgG1, V domains shown)
VH: QVQLQESGPGLVRPSETLSLTCTVSGGSISSSSYYWAWVRQSPGKGLEWIGNIYYRGSTYYNPSLKSRVTMSVDMSKHQFSLKLSSLNAADTAVYYCASLYSGTYVFDYWGRGTLVTVSS
VL: QSVLTQPPSASGTPGQRVTISCSGSRPNIGGNTVNWYQQLPGAAPKLLIYSNSQRPSGVPDRFSGSKYGTSASLAISGLQSDDEADYYCGTWDDSLNGPVFGRGTKLTVL
notes: IgG1
B13: CD730008 antibody (antibody, IgG1, V domains shown)
VH: EVQLLETGGGLVQPGGSLRLSCAASGFTFSSYAMSWVRQAPGKGLEWVSAISGSGGSTYYADSVKGRFTISRDNSKNTLYLQMNSLRAEDTAVYYCARGNYGNLDHWGKGTLVTVSS
VL: QSVLTQPPSVSVSPGQTASITCSGDKVGDKYASWYQQKPGQSPVLVIYQDRKRPSGIPERFSGSNSGNTATLTISGTQPMDEADYYCQAWDSSHWVFGGGTKLTVL
B14: 73combo5 (G10 + GRVE + HPT) (antibody, IgG1, V domains shown)
VH: EVQLLESGGGLVQPGGSLRLSCAASGFTFSSYAYSWVRQAPGKGLEWVSAISGSWGRTYYADSVKGRFTISRDNSKNTLYLQMNSLRAEDTAVYYCARLGYGRVDEWGRGTLVTVSS
VL: QSVLTQPPSASGTPGQRVTISCSGSLSNIGRNDVNWYQQLPGTAPKLLIYLNNQRLGGVPDRFSGSKSGTSASLAISGLQSEDEADYYCATWDDSHPGWTFGGGTKLTVL
notes: also called clone 10 combo5
B15: CD730002 antibody (antibody, IgG1, V domains shown)
VH: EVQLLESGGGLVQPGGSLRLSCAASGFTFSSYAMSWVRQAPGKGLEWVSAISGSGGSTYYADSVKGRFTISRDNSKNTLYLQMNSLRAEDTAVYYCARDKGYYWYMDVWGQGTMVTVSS
VL: QSVLTQPPSVSVSPGQTATITCSGDKVGDKYASWYQQKPGQSPVLVIYEDTKRPSRIPERFSGSNSGNTATLTISGTQALDEADYFCQAWDTSFWVFGGGTKLTVL
notes: IgG1; tested as IgG1-TM; also called clone 2
B16: CD730002 2C5 (antibody, IgG1, V domains shown)
VH: EVQLLESGGGLVQPGGSLRLSCAASGFTFSSYAMSWVRQAPGKGLEWVSAISGSGGSTYYADSVKRRFTISRDNSKNTLYLQMNSLRAEDTAVYYCARDKGYYWYMDVWGQGTMVTVSS
VL: QSVLTQPPSVSVSPGQTASITCSGDKVGDKYASWYQQKPGQSPVLVIYEDTKRLSGIPERFSGSNSGNTATLTISGTQAMDEADYYCQAWDTSFWVFGGGTKLTVL
notes: IgG1; also called clone 2C5 antibody
B17: 73combo1 (C1 + GRVE + HPT) (antibody, IgG1, V domains shown)
VH: EVQLLESGGGLVQPGGSLRLSCAASGFTFSSYAYSWVRQAPGKGLEWVSAISGSGGSTYYADSVKGRFTISRDNSKNTLYLQMNSLRAEDTAVYYCARLGYGRVDEWGRGTLVTVSS
VL: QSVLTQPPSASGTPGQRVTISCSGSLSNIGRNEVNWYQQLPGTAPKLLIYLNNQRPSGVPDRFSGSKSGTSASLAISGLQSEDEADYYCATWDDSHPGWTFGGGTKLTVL
notes: also called clone 10 combo1

Tests used:
[1] = target: cynomolgus CD73 (form not stated) (cynomolgus); assay: Binding, Cyno; assay not described
human CD73 on cells [2] = target: T1, human CD73 on cells; assay: cell-based or functional assay
[3] = target: T3, cynomolgus CD73 extracellular domain (ECD) (cynomolgus); assay: SPR (Proteon), IgG1-TM
T3 construct: extracellular domain; also called Cynomolgus CD73 ECD; cyno CD73 (SPR Proteon)

[4] = target: T2, recombinant human CD73 protein (form …); assay: assay and target not stated in Table 11 (taken as human CD73)
cynomolgus CD73 on cells = target: T4, cynomolgus CD73 on cells (cynomolgus); assay: flow cytometry on MK-1 cells, IgG1-TM
T4 construct: whole, on cells; also called native CD73 on MK-1 cells (cynomolgus)

human CD73 on cells [5] = target: T1, human CD73 on cells; assay: cell-based or functional assay; remark: listed apart in the source

Binder	1/EC50 [1]	Kd (cynomolgus CD73 on cells)	also measured
B1	0.0033 nM⁻¹	–	FabZAP internalization, EC50, MDA-MB-231 (human CD73 on cells [2]): 0.158 nM; FabZAP internalization, max toxicity, MDA-MB-231 (human CD73 on cells [2]): 84%; Kd [3]: 1.92 nM; EC50 [4]: 69 nM
B2	–	0.105 nM	–
B3	–	0.258 nM	–
B4	–	–	EC50 [4]: 205 nM
B5	–	0.16 nM	Kd [3]: 0.012 nM
B6	0.0014 nM⁻¹	–	–
B7	0 nM⁻¹	–	–
B8	0.01 nM⁻¹	–	–
B9	2e-06 nM⁻¹	–	–
B10	0.0027 nM⁻¹	–	–
B11	–	0.074 nM	–
B12	0.0012 nM⁻¹	–	–
B13	0.0011 nM⁻¹	–	1/EC50, Enzyme Inhibition, MDA-MB-231 (human CD73 on cells [5]): 0.011 nM⁻¹
B14	–	0.078 nM	–
B15	0.2 nM⁻¹	0.052 nM	Kd [3]: 0.015 nM
B16	–	0.063 nM	Kd [3]: 0.009 nM
B17	–	0.09 nM	Kd [3]: 0.008 nM

From patent US20160194407A1 (AstraZeneca / MedImmune, published 2016)
